# Source: paper PMC2175344
# Experiments:
# Test in all cases: fluorescence anisotropy
# [1] = target: HIV-1 reverse transcriptase (RT) (HIV-1, UniProt P04585;P04585 588-1147;588-1027)
# APOBEC3G (A3G) = APOBEC3G (A3G) (Homo sapiens, UniProt Q9HC16 1-384)
# [2] = target: HIV-1 nucleocapsid protein (NC) (HIV-1, UniProt P12493 378-432)
# Chain of APOBEC3G (A3G) (Q9HC16 whole entry): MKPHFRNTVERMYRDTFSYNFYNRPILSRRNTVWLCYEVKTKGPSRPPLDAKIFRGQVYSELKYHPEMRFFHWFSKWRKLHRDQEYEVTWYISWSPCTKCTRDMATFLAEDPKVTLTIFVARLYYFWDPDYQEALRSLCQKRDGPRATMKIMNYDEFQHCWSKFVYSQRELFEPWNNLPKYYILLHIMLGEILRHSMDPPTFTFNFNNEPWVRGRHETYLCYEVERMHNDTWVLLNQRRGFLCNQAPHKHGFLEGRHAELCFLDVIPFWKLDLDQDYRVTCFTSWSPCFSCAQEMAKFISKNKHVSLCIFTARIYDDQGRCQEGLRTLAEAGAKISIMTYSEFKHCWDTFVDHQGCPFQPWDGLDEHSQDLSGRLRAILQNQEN
binder,measurement,setting,value
CTTCTTTGGGAGTGAATTAG (ssDNA) [5'-FAM-JL587D 20-mer],Kd,[1],1840 ± 390 nM
same,Kd,APOBEC3G (A3G),238 ± 95 nM
same,Kd,[2],84.1 ± 7.8 nM
